B1: Tyrosine-protein kinase FRK (Homo sapiens), P42685 (parent)
chain: MSNICQRLWEYLEPYLPCLSTEADKSTVIENPGALCSPQSQRHGHYFVALFDYQARTAEDLSFRAGDKLQVLDTLHEGWWFARHLEKRRDGSSQQLQGYIPSNYVAEDRSLQAEPWFFGAIGRSDAEKQLLYSENKTGSFLIRESESQKGEFSLSVLDGAVVKHYRIKRLDEGGFFLTRRRIFSTLNEFVSHYTKTSDGLCVKLGKPCLKIQVPAPFDLSYKTVDQWEIDRNSIQLLKRLGSGQFGEVWEGLWNNTTPVAVKTLKPGSMDPNDFLREAQIMKNLRHPKLIQLYAVCTLEDPIYIITELMRHGSLQEYLQNDTGSKIHLTQQVDMAAQVASGMAYLESRNYIHRDLAARNVLVGEHNIYKVADFGLARVFKVDNEDIYESRHEIKLPVKWTAPEAIRSNKFSIKSDVWSFGILLYEIITYGKMPYSGMTGAQVIQMLAQNYRLPQPSNCPQQFYNIMLECWNAEPKERPTFETLRWKLEDYFETDSSYSDANNFIR
partner: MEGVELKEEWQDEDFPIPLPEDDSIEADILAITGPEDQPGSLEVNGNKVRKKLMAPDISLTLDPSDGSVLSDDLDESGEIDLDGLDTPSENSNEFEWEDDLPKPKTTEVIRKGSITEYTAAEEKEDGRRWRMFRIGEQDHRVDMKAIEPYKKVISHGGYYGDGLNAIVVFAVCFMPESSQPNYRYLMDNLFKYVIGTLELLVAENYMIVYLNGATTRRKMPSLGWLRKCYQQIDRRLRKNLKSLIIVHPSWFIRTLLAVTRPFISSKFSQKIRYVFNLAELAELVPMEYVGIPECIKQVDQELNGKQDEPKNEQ
B2: Elongin-A2 (Homo sapiens), Q8IYF1 (parent)
chain: MAAGSTTLHAVEKLQVRLATKTEPKKLEKYLQKLSALPMTADILAETGIRKTVKRLRKHQHVGDFARDLAARWKKLVLVDRNTRPGPQDPEESASRQRFGEALQDQEKAWGFPENATAPRSPSHSPEHRRTARRTPPGQQRPHPRSHSREPRAERKCPRIAPADSGRYRASPTRTAPLRMPEGPEPAAPGKQPGRGHTHAAQGGPLLCPGCQGQPQGKAVVSHSKGHKSSRQEKRPLCAQGDWHSPTLIREKSCGACLREETPRMPSWASARDRQPSDFKTDKEGGQAGSGQRVPALEEAPDSHQKRPQHSHSNKKRPSLDGRDPGNGTHGLSPEEKEQLSNDRETQEGKPPTAHLDRTSVSSLSEVEEVDMAEEFEQPTLSCEKYLTYDQLRKQKKKTGKSATTALGDKQRKANESKGTRESWDSAKKLPPVQESQSERLQAAGADSAGPKTVPSHVFSELWDLSEAWMQANYDPLSDSDSMTSQAKPEALSSPKFREEAAFPGRRVNAKMPVYSGSRPACQLQVPTLRQQCAQVLRNNPDALSDVGEVPYWVLEPVLEGWRPDQLYRRKKDNHALVRETDELRRNHCFQDFKEEKPQENKTWREQYLRLPDAPEQRLRVMTTNIRSARGNNPNGREAKMICFKSVAKTPYDTSRRQEKSAGDADPENGEIKPASKPAGSSHTPSSQSSSGGGRDSSSSILRWLPEKRANPCLSSSNEHAAPAAKTRKQAAKKVAPLMAKAIRDYKRRFSRR
partner: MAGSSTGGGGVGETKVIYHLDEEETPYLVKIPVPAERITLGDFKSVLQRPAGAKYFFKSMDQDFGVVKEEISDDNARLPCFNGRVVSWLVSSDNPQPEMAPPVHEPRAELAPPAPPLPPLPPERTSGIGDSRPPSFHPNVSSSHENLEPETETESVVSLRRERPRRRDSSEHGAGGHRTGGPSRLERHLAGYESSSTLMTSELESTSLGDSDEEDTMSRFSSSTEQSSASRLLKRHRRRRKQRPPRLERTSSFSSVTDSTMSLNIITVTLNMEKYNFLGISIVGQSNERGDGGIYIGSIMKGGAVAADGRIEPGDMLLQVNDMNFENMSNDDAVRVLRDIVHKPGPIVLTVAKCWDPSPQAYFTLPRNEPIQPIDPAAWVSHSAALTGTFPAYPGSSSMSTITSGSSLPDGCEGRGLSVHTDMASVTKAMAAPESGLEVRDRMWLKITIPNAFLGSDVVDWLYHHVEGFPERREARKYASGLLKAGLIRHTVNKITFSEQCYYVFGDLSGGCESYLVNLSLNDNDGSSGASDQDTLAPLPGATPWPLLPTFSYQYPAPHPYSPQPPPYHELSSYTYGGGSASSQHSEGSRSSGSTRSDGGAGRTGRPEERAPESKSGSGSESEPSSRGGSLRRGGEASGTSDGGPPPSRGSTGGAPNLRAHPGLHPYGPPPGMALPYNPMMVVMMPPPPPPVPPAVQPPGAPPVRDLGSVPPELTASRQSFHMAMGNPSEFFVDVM
B3: Syntenin-1 (Homo sapiens), O00560 (parent)
chain: MSLYPSLEDLKVDKVIQAQTAFSANPANPAILSEASAPIPHDGNLYPRLYPELSQYMGLSLNEEEIRANVAVVSGAPLQGQLVARPSSINYMVAPVTGNDVGIRRAEIKQGIREVILCKDQDGKIGLRLKSIDNGIFVQLVQANSPASLVGLRFGDQVLQINGENCAGWSSDKAHKVLKQAFGEKITMTIRDRPFERTITMHKDSTGHVGFIFKNGKITSIVKDSSAARNGLLTEHNICEINGQNVIGLKDSQIADILSTSGTVVTITIMPAFIFEHIIKRMAPSIMKSLMDHTIPEV
partner: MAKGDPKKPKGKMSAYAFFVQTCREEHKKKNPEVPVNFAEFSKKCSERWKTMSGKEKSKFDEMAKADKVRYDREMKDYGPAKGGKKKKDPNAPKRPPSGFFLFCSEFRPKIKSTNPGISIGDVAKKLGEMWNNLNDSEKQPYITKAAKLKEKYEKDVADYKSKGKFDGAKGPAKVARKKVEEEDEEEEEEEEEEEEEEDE
B4: EKC/KEOPS complex subunit TP53RK (Homo sapiens), Q96S44 (parent)
chain: MAAARATTPADGEEPAPEAEALAAARERSSRFLSGLELVKQGAEARVFRGRFQGRAAVIKHRFPKGYRHPALEARLGRRRTVQEARALLRCRRAGISAPVVFFVDYASNCLYMEEIEGSVTVRDYIQSTMETEKTPQGLSNLAKTIGQVLARMHDEDLIHGDLTTSNMLLKPPLEQLNIVLIDFGLSFISALPEDKGVDLYVLEKAFLSTHPNTETVFEAFLKSYSTSSKKARPVLKKLDEVRLRGRKRSMVG

Variants of: B1
Conditions: with bnip2_human BNIP2, Q12982

| effect of a mutation on the interaction | Variant |
| --- | --- |
| disrupting interaction strength | G122R |

Variants of: B2
Conditions: with dvl2_human DVL2, O14641

| effect of a mutation on the interaction | Variant |
| --- | --- |
| with no effect | G505R |
| with no effect | C254F |
| with no effect | A446T |
| with no effect | D302H |
| with no effect | R179P |
| with no effect | R498Q |
| with no effect | A403S |
| with no effect | T6S |

Variants of: B3
Conditions: with hmgb3_human HMGB3, O15347

| effect of a mutation on the interaction | Variant |
| --- | --- |
| with no effect | K124R |

Variants of: B4
Conditions: with ccdb1_human CCNDBP1, O95273
Sequence of ccdb1_human CCNDBP1, O95273 (O95273 whole entry): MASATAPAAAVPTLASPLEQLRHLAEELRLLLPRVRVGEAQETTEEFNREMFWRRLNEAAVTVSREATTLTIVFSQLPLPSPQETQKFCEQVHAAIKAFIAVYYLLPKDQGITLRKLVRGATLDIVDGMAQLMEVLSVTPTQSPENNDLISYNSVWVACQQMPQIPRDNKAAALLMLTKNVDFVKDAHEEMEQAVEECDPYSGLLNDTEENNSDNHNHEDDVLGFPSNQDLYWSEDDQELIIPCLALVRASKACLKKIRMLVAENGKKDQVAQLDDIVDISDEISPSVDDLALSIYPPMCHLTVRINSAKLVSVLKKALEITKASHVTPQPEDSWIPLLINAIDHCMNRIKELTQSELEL

| effect of a mutation on the interaction | Variant |
| --- | --- |
| with no effect | T129A |
